Laboratory results taken from US20220073581A1 (UCB, published 2022).

Columns and labels:
[1] = target: T1, Human serum albumin (HSA), Jackson ImmunoResearch catalog #009-000-051 (human, UniProt P02768 25-609); test: SPR (Biacore), fusion captured from supernatant on anti-human F(ab)2, 1000 nM HSA injected
[2] = target: T2, IL-2-Rβ (IL-2 receptor β chain, R&D Systems) (UniProt P14784 27-239); test: SPR (Biacore), fusion captured from supernatant on anti-human F(ab)2, 100 nM IL-2-Rβ injected
T2 construct: also called IL-2-sRβ
T2 sequence (looked up): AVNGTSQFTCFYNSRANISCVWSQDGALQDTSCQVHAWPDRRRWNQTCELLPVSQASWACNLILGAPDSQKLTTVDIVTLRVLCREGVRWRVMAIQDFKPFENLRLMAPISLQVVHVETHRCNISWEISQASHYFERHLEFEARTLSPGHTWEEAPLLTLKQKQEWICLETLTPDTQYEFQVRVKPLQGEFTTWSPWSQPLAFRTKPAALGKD

[3] = target: T3, IL-15-Rα-hFc (R&D Systems) (UniProt Q13261 31-205); test: SPR (Biacore), fusion captured from supernatant on anti-human F(ab)2, 100 nM IL-15-Rα injected
T3 construct: Bought reagent; not shown: human Fc (hFc)

[4] = target: T1, Human serum albumin (HSA), Jackson …; test: SPR (Biacore), fusion captured on anti-human F(ab)2, 1000 nM HSA injected alone or with 100 nM G-CSF-Rα
[5] = target: T2, IL-2-Rβ (IL-2 receptor β chain, R&D …); test: SPR (Biacore), fusion captured on anti-human F(ab)2, 100 nM IL-2-sRβ injected, with or without premixed 200 nM IL-15
[6] = target: T4, GM-CSF receptor, cognate for the human GM-CSF constructs (GM-CSF-Ra, R&D Systems) (UniProt P15509 23-320); test: SPR (Biacore), fusion captured on anti-human F(ab)2, 100 nM GM-CSF receptor injected
T4 construct: also called cognate GM-CSF receptor
T4 sequence (looked up): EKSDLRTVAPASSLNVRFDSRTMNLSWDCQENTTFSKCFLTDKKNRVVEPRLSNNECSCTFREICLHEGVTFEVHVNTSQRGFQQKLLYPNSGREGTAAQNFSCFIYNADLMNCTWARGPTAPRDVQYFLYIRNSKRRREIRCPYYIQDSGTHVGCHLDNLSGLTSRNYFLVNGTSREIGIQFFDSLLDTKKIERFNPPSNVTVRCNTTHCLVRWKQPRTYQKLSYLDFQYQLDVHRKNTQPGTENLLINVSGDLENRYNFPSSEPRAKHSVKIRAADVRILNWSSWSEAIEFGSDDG

IL-6 (R&D Systems) = IL-6 (R&D Systems) (UniProt P05231 30-212, limits assumed); test: SPR (Biacore), fusion captured on anti-human F(ab)2, 100 nM IL-6 injected alone or with 1000 nM HSA
[7] = target: T2, IL-2-Rβ (IL-2 receptor β chain, R&D …); test: SPR (Biacore), fusion captured on anti-human F(ab)2, 100 nM IL-2-sRβ injected, with or without premixed 200 nM IL-15; remark: listed apart in the source
Lysozyme (R&D Systems) = Lysozyme (R&D Systems) (UniProt P00698 19-147); test: SPR, Fab construct captured via anti-human F(ab)2, lysozyme 0.1-10 nM, Langmuir model
[8] = target: T2, IL-2-Rβ (IL-2 receptor β chain, R&D …); test: SPR (Biacore), fusion captured on anti-human F(ab)2, 100 nM IL-2-sRβ injected, with or without premixed 200 nM IL-15; remark: listed apart in the source

B1: CA645/IL-15Fwk3 (CA645 Fab with human IL-15 inserted into framework 3 of the VH domain, original linkers) (Fab)
heavy: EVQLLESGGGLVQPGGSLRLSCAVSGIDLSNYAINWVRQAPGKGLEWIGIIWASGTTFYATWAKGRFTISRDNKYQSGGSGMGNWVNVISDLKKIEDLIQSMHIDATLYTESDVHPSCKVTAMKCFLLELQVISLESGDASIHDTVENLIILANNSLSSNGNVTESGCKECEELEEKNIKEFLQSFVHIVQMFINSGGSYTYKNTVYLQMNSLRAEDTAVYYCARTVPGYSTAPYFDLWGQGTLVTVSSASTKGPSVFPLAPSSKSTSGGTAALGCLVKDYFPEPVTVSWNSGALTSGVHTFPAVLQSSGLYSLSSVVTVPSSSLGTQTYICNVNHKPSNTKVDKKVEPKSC
light: DIQMTQSPSSVSASVGDRVTITCQSSPSVWSNFLSWYQQKPGKAPKLLIYEASKLTSGVPSRFSGSGSGTDFTLTISSLQPEDFATYYCGGGYSSISDTTFGGGTKVEIKRTVAAPSVFIFPPSDEQLKSGTASVVCLLNNFYPREAKVQWKVDNALQSGNSQESVTEQDSKDSTYSLSSTLTLSKADYEKHKVYACEVTHQGLSSPVTKSFNRGEC
notes: Tested as HEK293 supernatant diluted 1 in 5, captured on anti-human F(ab)2; also called CA645/IL-15 antibody fusion protein
[1]
  binding result: binds
[2]
  binding result: binds
[3]
  binding result: binds

B2: CA645/G-CSFFwk3 (CA645 Fab with human G-CSF inserted into framework 3 of the VH domain) (Fab)
heavy: EVQLLESGGGLVQPGGSLRLSCAVSGIDLSNYAINWVRQAPGKGLEWIGIIWASGTTFYATWAKGRFTISRDNSGGGGSATPLGPASSLPQSFLLKCLEQVRKIQGDGAALQEKLVSECATYKLCHPEELVLLGHSLGIPWAPLSSCPSQALQLAGCLSQLHSGLFLYQGLLQALEGISPELGPTLDTLQLDVADFATTIWQQMEELGMAPALQPTQGAMPAFASAFQRRAGGVLVASHLQSFLEVSYRVLRHLAQPSGGGGKNTVYLQMNSLRAEDTAVYYCARTVPGYSTAPYFDLWGQGTLVTVSSASTKGPSVFPLAPSSKSTSGGTAALGCLVKDYFPEPVTVSWNSGALTSGVHTFPAVLQSSGLYSLSSVVTVPSSSLGTQTYICNVNHKPSNTKVDKKVEPKSC
light: DIQMTQSPSSVSASVGDRVTITCQSSPSVWSNFLSWYQQKPGKAPKLLIYEASKLTSGVPSRFSGSGSGTDFTLTISSLQPEDFATYYCGGGYSSISDTTFGGGTKVEIKRTVAAPSVFIFPPSDEQLKSGTASVVCLLNNFYPREAKVQWKVDNALQSGNSQESVTEQDSKDSTYSLSSTLTLSKADYEKHKVYACEVTHQGLSSPVTKSFNRGEC
notes: also called CA645/G-CSF antibody fusion protein
[4]
  binding result: binds

B3: CA645/IL-2Fwk3 (CA645 Fab with human IL-2 inserted into framework 3 of the VH domain) (Fab)
heavy: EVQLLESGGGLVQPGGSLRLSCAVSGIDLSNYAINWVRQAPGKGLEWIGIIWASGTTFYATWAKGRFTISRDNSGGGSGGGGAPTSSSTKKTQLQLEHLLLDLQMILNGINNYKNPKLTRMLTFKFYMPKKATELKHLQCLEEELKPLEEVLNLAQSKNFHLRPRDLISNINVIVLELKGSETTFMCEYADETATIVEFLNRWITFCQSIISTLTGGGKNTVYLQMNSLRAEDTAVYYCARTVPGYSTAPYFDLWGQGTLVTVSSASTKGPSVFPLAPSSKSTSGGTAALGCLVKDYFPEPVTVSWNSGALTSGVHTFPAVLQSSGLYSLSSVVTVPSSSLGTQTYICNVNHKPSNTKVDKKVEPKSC
light: DIQMTQSPSSVSASVGDRVTITCQSSPSVWSNFLSWYQQKPGKAPKLLIYEASKLTSGVPSRFSGSGSGTDFTLTISSLQPEDFATYYCGGGYSSISDTTFGGGTKVEIKRTVAAPSVFIFPPSDEQLKSGTASVVCLLNNFYPREAKVQWKVDNALQSGNSQESVTEQDSKDSTYSLSSTLTLSKADYEKHKVYACEVTHQGLSSPVTKSFNRGEC
notes: also called CA645/IL-2 antibody fusion protein
[5]
  binding result: binds

B4: CA645/GM-CSFFwk3 (human) (CA645 Fab with human GM-CSF inserted into framework 3 of the VH domain) (Fab)
heavy: not shown
light: DIQMTQSPSSVSASVGDRVTITCQSSPSVWSNFLSWYQQKPGKAPKLLIYEASKLTSGVPSRFSGSGSGTDFTLTISSLQPEDFATYYCGGGYSSISDTTFGGGTKVEIKRTVAAPSVFIFPPSDEQLKSGTASVVCLLNNFYPREAKVQWKVDNALQSGNSQESVTEQDSKDSTYSLSSTLTLSKADYEKHKVYACEVTHQGLSSPVTKSFNRGEC
notes: also called CA645/hGM-CSF antibody fusion protein
[6]
  binding result: binds

B5: CA645/VHH15Fwk3 (CA645 Fab with anti-IL-6 camelid VHH15 inserted into framework 3 of the VH domain) (bispecific antibody)
heavy: EVQLLESGGGLVQPGGSLRLSCAVSGIDLSNYAINWVRQAPGKGLEWIGIIWASGTTFYATWAKGRFTISRDNSGGGGSGGGGSQVQLVESGGGSVQAGGSLRLSCVAASGYTGCTYDMRWYRQAPGKEREFVSGIDSDGRATYADSVKGRFTISQSNAKIAVYLQMDSLKLEDTAMYYCNLQCLRYPGEYYWGQGTQVTVSSGGGGSGGGGSKNTVYLQMNSLRAEDTAVYYCARTVPGYSTAPYFDLWGQGTLVTVSSASTKGPSVFPLAPSSKSTSGGTAALGCLVKDYFPEPVTVSWNSGALTSGVHTFPAVLQSSGLYSLSSVVTVPSSSLGTQTYICNVNHKPSNTKVDKKVEPKSC
light: DIQMTQSPSSVSASVGDRVTITCQSSPSVWSNFLSWYQQKPGKAPKLLIYEASKLTSGVPSRFSGSGSGTDFTLTISSLQPEDFATYYCGGGYSSISDTTFGGGTKVEIKRTVAAPSVFIFPPSDEQLKSGTASVVCLLNNFYPREAKVQWKVDNALQSGNSQESVTEQDSKDSTYSLSSTLTLSKADYEKHKVYACEVTHQGLSSPVTKSFNRGEC
notes: also called CA645/VHH15 antibody fusion protein
IL-6 (R&D Systems)
  binding result: binds

B6: CA645/GM-CSFCH1 (human) (CA645 Fab with human GM-CSF at the C-terminus of CH1, for comparison) (Fab, V domains shown)
VH: EVQLLESGGGLVQPGGSLRLSCAVSGIDLSNYAINWVRQAPGKGLEWIGIIWASGTTFYATWAKGRFTISRDNSKNTVYLQMNSLRAEDTAVYYCARTVPGYSTAPYFDLWGQGTLVTVSS
VL: DIQMTQSPSSVSASVGDRVTITCQSSPSVWSNFLSWYQQKPGKAPKLLIYEASKLTSGVPSRFSGSGSGTDFTLTISSLQPEDFATYYCGGGYSSISDTTFGGGTKVEIKR
notes: also called constant domain (CH1) fusion of the GM-CSF peptide (human)
[6]
  binding result: binds

B7: CA240/IL-15Fwk3 (anti-IL-6 CA240 Fab with human IL-15 inserted into framework 3 of the VH domain) (Fab)
heavy: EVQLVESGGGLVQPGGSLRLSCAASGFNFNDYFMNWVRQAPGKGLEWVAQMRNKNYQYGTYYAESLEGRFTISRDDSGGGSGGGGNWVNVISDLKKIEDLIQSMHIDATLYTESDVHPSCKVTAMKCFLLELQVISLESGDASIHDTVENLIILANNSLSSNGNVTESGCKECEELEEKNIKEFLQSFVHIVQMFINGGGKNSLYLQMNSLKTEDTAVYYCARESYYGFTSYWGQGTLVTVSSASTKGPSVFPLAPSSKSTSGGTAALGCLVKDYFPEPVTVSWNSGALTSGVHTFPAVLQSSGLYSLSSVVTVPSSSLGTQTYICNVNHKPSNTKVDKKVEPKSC
light: DIQMTQSPSSLSASVGDRVTITCQASQDIGISLSWYQQKPGKAPKLLIYNANNLADGVPSRFSGSGSGTDFTLTISSLQPEDFATYYCLQHNSAPYTFGQGTKLEIKRTVAAPSVFIFPPSDEQLKSGTASVVCLLNNFYPREAKVQWKVDNALQSGNSQESVTEQDSKDSTYSLSSTLTLSKADYEKHKVYACEVTHQGLSSPVTKSFNRGEC
notes: also called CA240/IL-15 antibody fusion protein
[7]
  binding result: binds

B8: CA645/VHH D3L11Fwk3 (CA645 Fab with anti-lysozyme VHH D3L11 inserted into framework 3 of the light chain) (bispecific antibody)
heavy: EVQLLESGGGLVQPGGSLRLSCAVSGIDLSNYAINWVRQAPGKGLEWIGIIWASGTTFYATWAKGRFTISRDNSKNTVYLQMNSLRAEDTAVYYCARTVPGYSTAPYFDLWGQGTLVTVSSASTKGPSVFPLAPSSKSTSGGTAALGCLVKDYFPEPVTVSWNSGALTSGVHTFPAVLQSSGLYSLSSVVTVPSSSLGTQTYICNVNHKPSNTKVDKKVEPKSC
light: DIQMTQSPSSVSASVGDRVTITCQSSPSVWSNFLSWYQQKPGKAPKLLIYEASKLTSGVPSRFSGSGSGSGGGGSDVQLVESGGGSVQAGGSLRLSCAASGSTDSIEYMTWFRQAPGKAREGVAALYTHTGNTYYTDSVKGRFTISQDKAKNMAYLRMDSVKSEDTAIYTCGATRKYVPVRFALDQSSYDYWGQGTQVTVSSGGGGSGGGGSGGGGSTDFTLTISSLQPEDFATYYCGGGYSSISDTTFGGGTKVEIKRTVAAPSVFIFPPSDEQLKSGTASVVCLLNNFYPREAKVQWKVDNALQSGNSQESVTEQDSKDSTYSLSSTLTLSKADYEKHKVYACEVTHQGLSSPVTKSFNRGEC
notes: also called Antibody: CA645 Fab, Framework 3 Insert: VHH D3L11
Lysozyme (R&D Systems)
  Kd: 0.48 nM

B9: CA497/IL-15Fwk3 (anti-IL-17A CA497 Fab with human IL-15 inserted into framework 3 of the VH domain) (Fab)
heavy: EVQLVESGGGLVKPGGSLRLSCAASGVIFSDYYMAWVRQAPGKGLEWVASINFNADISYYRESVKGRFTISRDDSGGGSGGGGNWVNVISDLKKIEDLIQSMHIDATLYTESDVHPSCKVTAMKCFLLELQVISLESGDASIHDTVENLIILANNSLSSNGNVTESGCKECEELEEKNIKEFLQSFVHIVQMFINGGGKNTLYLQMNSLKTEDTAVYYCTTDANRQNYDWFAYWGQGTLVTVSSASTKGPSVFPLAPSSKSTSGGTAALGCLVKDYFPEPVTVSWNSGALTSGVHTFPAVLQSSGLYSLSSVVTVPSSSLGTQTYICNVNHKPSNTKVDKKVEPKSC
light: AIQLTQSPSSLSASVGDRVTITCKASESVSSSMYSYMHWYQQKPGKAPKLLIYRASNLESGVPSRFSGSGSGTDFTLTISSLQPEDFATYYCQQSWTAPRTFGQGTKVEIKRTVAAPSVFIFPPSDEQLKSGTASVVCLLNNFYPREAKVQWKVDNALQSGNSQESVTEQDSKDSTYSLSSTLTLSKADYEKHKVYACEVTHQGLSSPVTKSFNRGEC
notes: also called CA497/IL-15 antibody fusion protein
[8]
  binding result: binds

B10: HyHEL5/VHH15Fwk3 (anti-lysozyme HyHEL5 Fab with anti-IL-6 VHH15 inserted into framework 3 of the light chain) (bispecific antibody)
heavy: EVQLQQSGAELMKPGASVKISCKASGYTFSDYWIEWVKQRPGHGLEWIGEILPGSGSTNYHERFKGKATFTADTSSSTAYMQLNSLTSEDSGVYYCLHGNYDFDGWGQGTTLTVSSASTKGPSVFPLAPSSKSTSGGTAALGCLVKDYFPEPVTVSWNSGALTSGVHTFPAVLQSSGLYSLSSVVTVPSSSLGTQTYICNVNHKPSNTKVDKKVEPKSC
light: DIVLTQSPAIMSASPGEKVTMTCSASSSVNYMYWYQQKSGTSPKRWIYDTSKLASGVPVRFSGSGSGSGGGGSQVQLVESGGGSVQAGGSLRLSCVAASGYTGCTYDMRWYRQAPGKEREFVSGIDSDGRATYADSVKGRFTISQSNAKIAVYLQMDSLKLEDTAMYYCNLQCLRYPGEYYWGQGTQVTVSSGGGGSGGGGSGGGGSTSYSLTISSMETEDAATYYCQQWGRNPTFGGGTKLEIKRTVAAPSVFIFPPSDEQLKSGTASVVCLLNNFYPREAKVQWKVDNALQSGNSQESVTEQDSKDSTYSLSSTLTLSKADYEKHKVYACEVTHQGLSSPVTKSFNRGEC
notes: also called Antibody: HyHEL5 Fab, Framework 3 Insert: VHH15
Lysozyme (R&D Systems)
  Kd: 0.31 nM
